Data as given in patent US20150098989A1.
Non-standard residues stand in square brackets, D forms with d. Met(O) = CS(=O)CC[C@H](N)C(=O)O

How the values were obtained:
[1] = target: SNARE complex (VAMP, syntaxin, SNAP-25 bound to GST) (UniProt P60880); assay: ELISA of SNARE complex formation (SNAP-25-GST, syntaxin, immobilized VAMP); compound at 2.5 mM
[2] = target: SNARE complex (VAMP, syntaxin, SNAP-25 bound to GST) (UniProt P60880); assay: ELISA of SNARE complex formation (SNAP-25-GST, syntaxin, immobilized VAMP); compound at 0.5 mM
[3] = target: SNARE complex (VAMP, syntaxin, SNAP-25) (UniProt P60880); assay: SDS-PAGE of SNARE complex (VAMP, syntaxin, SNAP-25), image analysis; compound at 1 mM
[4] = target: SNARE complex (VAMP, syntaxin, SNAP-25) (UniProt P60880); assay: SDS-PAGE of SNARE complex (VAMP, syntaxin, SNAP-25), image analysis; compound at 5 mM

SNARE complex (VAMP, syntaxin, SNAP-25 bound to GST), sequence (P60880 whole entry, one chain of several): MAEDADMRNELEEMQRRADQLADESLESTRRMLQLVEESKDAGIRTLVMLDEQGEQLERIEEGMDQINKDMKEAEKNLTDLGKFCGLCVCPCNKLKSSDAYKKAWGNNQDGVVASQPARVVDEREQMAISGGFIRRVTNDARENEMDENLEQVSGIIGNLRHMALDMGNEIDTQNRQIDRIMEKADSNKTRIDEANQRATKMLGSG
SNARE complex (VAMP, syntaxin, SNAP-25), sequence (P60880 whole entry, one chain of several): as above

Binder	% inhibition formation SNARE complex [1]	% inhibition formation SNARE complex [2]	% inhibition formation SNARE complex [3]	% inhibition formation SNARE complex [4]
Ac-NDLKDWM-NH2 [Ac-SEQ ID NO: 23-NH2]	60%	10%	–	–
Ac-EHLKKWM-NH2 [Ac-SEQ ID NO: 8-NH2]	44%	11%	–	–
Ac-QDFLHWM-NH2 [Ac-SEQ ID NO: 2-NH2]	64%	26%	37%	80%
Ac-QHLKEWM-NH2 [Ac-SEQ ID NO: 12-NH2]	71%	20%	–	–
Ac-EHLKQWM-NH2 [Ac-SEQ ID NO: 1-NH2]	63%	33%	59%	100%
Ac-DHFQQRM-NH2 [Ac-SEQ ID NO: 24-NH2]	55%	41%	48%	100%
Ac-DHFLDWM-NH2 [Ac-SEQ ID NO: 25-NH2]	71%	40%	83%	100%
Ac-DHLKKWM-NH2 [Ac-SEQ ID NO: 22-NH2]	72%	18%	–	–
Ac-NHFLNWM-NH2 [Ac-SEQ ID NO: 15-NH2]	42%	48%	50%	100%
Ac-QHLHNVM-NH2 [Ac-SEQ ID NO: 3-NH2]	64%	31%	–	–
Ac-RHFLQWM-NH2 [Ac-SEQ ID NO: 13-NH2]	20%	–	–	–
Ac-EDLKRWM-NH2 [Ac-SEQ ID NO: 14-NH2]	67%	43%	83%	100%

Results, then the binder that gave them:

% inhibition formation SNARE complex [1]	% inhibition formation SNARE complex [2]	% inhibition formation SNARE complex [3]	% inhibition formation SNARE complex [4]	Binder
85%	27%	14%	59%	Ac-DHFLNWM-NH2 [Ac-SEQ ID NO: 34-NH2]
19%	–	–	–	Ac-NHLKHWM-NH2 [Ac-SEQ ID NO: 32-NH2]
59%	26%	–	–	Ac-NHLKNWM-NH2 [Ac-SEQ ID NO: 31-NH2]
65%	–	–	–	Ac-ENLKRWM-NH2 [Ac-SEQ ID NO: 117-NH2]
69%	–	–	–	Ac-EELKRWM-NH2 [Ac-SEQ ID NO: 116-NH2]
–	9%	–	–	Ac-DHFLDW[Met(O)]-NH2 [Ac-SEQ ID NO: 56-NH2]
14%	–	–	–	Ac-QHLKNWM-NH2 [Ac-SEQ ID NO: 27-NH2]
71%	24%	–	–	Ac-EHFLQWM-NH2 [Ac-SEQ ID NO: 30-NH2]
